Measurements published in US20230212587A1, “Mutant Hydroxyphenylpyruvate Dioxygenase Polypeptide, Encoding Gene Thereof and Use Therefor” (Beijing Dabeinong Biotechnology Co., Ltd., priority 2019, published 2023).

Test system: Arabidopsis thaliana T1 plants
Test: Topramezone tolerance of transgenic Arabidopsis thaliana T1 plants (pesticide damage grade by bleached leaf area, score, resistance evaluation)
Format: in vivo
Design: score: scale not given here
Text: The Arabidopsisthaliana T1 plants into which the AsHPPDm-F372A-02 nucleotide sequence was introduced, Arabidopsis thaliana T1 plants into which the AsHPPD-02 nucleotide sequence was introduced and wild-type Arabidopsisthaliana plants (18 days after sowing) were sprayed with topramezone at four different concentrations, i.e., 25 g ai/ha (one-fold field concentration, 1×), 50 g ai/ha (two-fold field concentration, 2×), 100 g ai/ha (four-fold field concentration, 4×) and 0 g ai/ha (water, 0×) to determine the tolerance of Arabidopsisthaliana to the herbicide. The degree of damage caused by the herbicide was measured for each plant according to the proportion of bleached leaf area (the proportion of bleached leaf area=bleached leaf area/total leaf area×100%) 7 days after spraying (7 DAT): the case where there is basically no bleached phenotype is defined as grade 0, the case where the proportion of bleached leaf area is less than 50% is defined as grade 1,the case where the proportion of bleached leaf area is more than 50% is defined as grade 2, and the case where the proportion of bleached leaf area is 100% grade is defined as grade 3.
According to the method as described above in point 6 of Example 1, the aforementioned Arabidopsisthaliana T1 plants and wild-type Arabidopsisthaliana plants (18 days after sowing) were sprayed with topramezone at three different concentrations respectively, i.e., 25 g ai/ha (one-fold field concentration, 1×), 100 g ai/ha (four-fold field concentration, 4×) and 0 g ai/ha(water, 0×) to detect the tolerance of Arabidopsisthaliana to the herbicide.
According to the method as described above in point 6 of Example 1, the aforementioned Arabidopsisthaliana T1 plants and wild-type Arabidopsisthaliana plants (18 days after sowing) were sprayed with topramezone at three different concentrations respectively, i.e., 25 g ai/ha (one-fold field concentration, 1x), 100 g ai/ha (four-fold field concentration, 4x) and 0 g ai/ha (water, 0x) to detect the tolerance of Arabidopsisthaliana to the herbicide.
According to the method as described above in point 6 of Example 1, the above-mentioned Arabidopsisthaliana T1 plants, Arabidopsisthaliana T1 plants into which the AsHPPD-02 nucleotide sequence was introduced, Arabidopsisthaliana T1 plants into which the PfHPPD-02 nucleotide sequence was introduced, and wild-type Arabidopsisthaliana plants (18 days after sowing) were sprayed with topramezone at four different concentrations respectively, that is, 25 g ai/ha (one-fold field concentration, 1x), 50 g ai/ha (two-fold field concentration, 2x), 100 g ai/ha (four-fold field concentration, 4x) and 0 g ai/ha (water, Ox) to detect the herbicide tolerance of Arabidopsisthaliana.
According to the method as described in point 6 of Example 1, the above-mentioned Arabidopsisthaliana T1 plants and wild-type Arabidopsisthaliana plants (18 days after sowing) were sprayed with topramezone at two different concentrations respectively, that is, 25 g ai/ha (one-fold field concentration, 1x) and 100 g ai/ha (four-fold field concentration, 4x) to detect the herbicide tolerance of Arabidopsisthaliana,. […]

[1] = Arabidopsis thaliana T1 plants sprayed with topramezone
[2] = topramezone 25 g ai/ha, mutation combination, Table 8
[3] = topramezone 100 g ai/ha, mutation combination, Table 8
[4] = topramezone 25 g ai/ha (1x), HPPD from Avena sativa source
[5] = topramezone 25 g ai/ha (1x), number of plants, HPPD from Avena sativa source
[6] = topramezone 50 g ai/ha (2x), HPPD from Avena sativa source
[7] = topramezone 50 g ai/ha (2x), number of plants, HPPD from Avena sativa source
[8] = topramezone 100 g ai/ha (4x), HPPD from Avena sativa source
[9] = topramezone 100 g ai/ha (4x), number of plants, HPPD from Avena sativa source
[10] = non-372 position mutants, number of plants (of 20) in this grade, topramezone 25 g ai/ha (1x)
[11] = non-372 position mutants, number of plants (of 20) in this grade, topramezone 100 g ai/ha (4x)

B1: PfHPPDm-G413W: Pseudomonas fluorescens HPPD with G336W (position 413 of SEQ ID NO: 1), SEQ ID NO: 418 (protein)
chain: MADLYENPMGLMGFEFIEFASPTPGTLEPIFEIMGFTKVATHRSKNVHLYRQGEINLILNNEPNSIASYFAAEHGPSVCGMAFRVKDSQKAYNRALELGAQPIHIDTGPMELNLPAIKGIGGAPLYLIDRFGEGSSIYDIDFVYLEGVERNPVGAGLKVIDHLTHNVYRGRMVYWANFYEKLFNFREARYFDIKGEYTGLTSKAMSAPDGMIRIPLNEESSKGAGQIEEFLMQFNGEGIQHVAFLTDDLVKTWDALKKIGMRFMTAPPDTYYEMLEGRLPDHGEPVDQLQARGILLDGSSVEGDKRLLLQIFSETLMGPVFFEFIQRKGDDGFGEWNFKALFESIERDQVRRGVLTAD
modifications: PfHPPDm-G413W Amino Acid Sequence
tolerance to topramezone, in words [1]: a certain tolerance to low concentration of topramezone | Grade 0 (number of plants) [2]: 2 | Grade 1 (number of plants) [2]: 18 | Grade 2 (number of plants) [2]: 0 | Grade 3 (number of plants) [2]: 0 | Resistance Grade [2]: Moderately resistant | score [2]: 30 | Grade 0 (number of plants) [3]: 0 | Grade 1 (number of plants) [3]: 0 | Grade 2 (number of plants) [3]: 10 | Grade 3 (number of plants) [3]: 10 | Resistance Grade [3]: Non-resistant | score [3]: 83

B2: F372D (protein, listed as Avena sativa)
chain: MPPTPATATGAAAAAVTPEHAARSFPRVVRVNPRSDRFPVLSFHHVELWCADAASAAGRFSFALGAPLAARSDLSTGNSAHASLLLRSGALAFLFTAPYAPPPQEAATAAATASIPSFSADAARTFAAAHGLAVRSVGVRVADAAEAFRVSVAGGARPAFAPADLGHGFGLAEVELYGDVVLRFVSYPDETDLPFLPGFERVSSPGAVDYGLTRFDHVVGNVPEMAPVIDYMKGFLGFHEFAEFTAEDVGTTESGLNSVVLANNSEAVLLPLNEPVHGTKRRSQIQTYLEYHGGPGVQHIALASNDVLRTLREMRARTPMGGFEFMAPPQAKYYEGVRRIAGDVLSEEQIKECQELGVLVDRDDQGVLLQIDTKPVGDRPTFFLEMIQRIGCMEKDEVGQEYQKGGCGGFGKGNFSELFKSIEDYEKSLEVKQSVVAQKS
modifications: AsHPPD Amido Acid Sequence
tolerance to topramezone, in words (saturation mutation of HPPD from Avena sativa source (label F372X = AsHPPDm-F372X), topramezone 25, 50, 100 g ai/ha): better tolerance | Resistance Grade [4]: Highly resistant | score [4]: 7 | Grade 0 [5]: 16 | Grade 1 [5]: 4 | Grade 2 [5]: 0 | Grade 3 [5]: 0 | Resistance Grade [6]: Highly resistant | score [6]: 0 | Grade 0 [7]: 20 | Grade 1 [7]: 0 | Grade 2 [7]: 0 | Grade 3 [7]: 0 | Resistance Grade [8]: Highly resistant | score [8]: 0 | Grade 0 [9]: 20 | Grade 1 [9]: 0 | Grade 2 [9]: 0 | Grade 3 [9]: 0

B3: AsHPPDm-Q284A: Avena sativa HPPD mutant Q284A, SEQ ID NO: 420 (protein)
chain: MPPTPATATGAAAAAVTPEHAARSFPRVVRVNPRSDRFPVLSFHHVELWCADAASAAGRFSFALGAPLAARSDLSTGNSAHASLLLRSGALAFLFTAPYAPPPQEAATAAATASIPSFSADAARTFAAAHGLAVRSVGVRVADAAEAFRVSVAGGARPAFAPADLGHGFGLAEVELYGDVVLRFVSYPDETDLPFLPGFERVSSPGAVDYGLTRFDHVVGNVPEMAPVIDYMKGFLGFHEFAEFTAEDVGTTESGLNSVVLANNSEAVLLPLNEPVHGTKRRSAIQTYLEYHGGPGVQHIALASNDVLRTLREMRARTPMGGFEFMAPPQAKYYEGVRRIAGDVLSEEQIKECQELGVLVDRDDQGVLLQIFTKPVGDRPTFFLEMIQRIGCMEKDEVGQEYQKGGCGGFGKGNFSELFKSIEDYEKSLEVKQSVVAQKS
modifications: AsHPPDm-Q284A Amino Acid Sequence
tolerance to topramezone, in words [1]: no significant difference | Grade 0 [10]: 0 | Grade 1 [10]: 2 | Grade 2 [10]: 16 | Grade 3 [10]: 2 | Grade 0 [11]: 0 | Grade 1 [11]: 0 | Grade 2 [11]: 5 | Grade 3 [11]: 15 | score (non-372 position mutants, score for pesticide damage 0-100, topramezone 25 g ai/ha (1x)): 67 | score (non-372 position mutants, score for pesticide damage 0-100, topramezone 100 g ai/ha (4x)): 92 | Resistance Grade (non-372 position mutants, topramezone 25 g ai/ha (1x)): poorly resistant (poorly resistant plants (scores 34-67)) | Resistance Grade (non-372 position mutants, topramezone 100 g ai/ha (4x)): non-resistant (non-resistant plants (scores 68-100))

B4: AsHPPDm-A110: Avena sativa HPPD with deletion of alanine at position 110, SEQ ID NO: 414 (protein)
chain: MPPTPATATGAAAAAVTPEHAARSFPRVVRVNPRSDRFPVLSFHHVELWCADAASAAGRFSFALGAPLAARSDLSTGNSAHASLLLRSGALAFLFTAPYAPPPQEAATAATASIPSFSADAARTFAAAHGLAVRSVGVRVADAAEAFRVSVAGGARPAFAPADLGHGFGLAEVELYGDVVLRFVSYPDETDLPFLPGFERVSSPGAVDYGLTRFDHVVGNVPEMAPVIDYMKGFLGFHEFAEFTAEDVGTTESGLNSVVLANNSEAVLLPLNEPVHGTKRRSQIQTYLEYHGGPGVQHIALASNDVLRTLREMRARTPMGGFEFMAPPQAKYYEGVRRIAGDVLSEEQIKECQELGVLVDRDDQGVLLQIFTKPVGDRPTFFLEMIQRIGCMEKDEVGQEYQKGGCGGFGKGNFSELFKSIEDYEKSLEVKQSVVAQKS
modifications: AsHPPDm-A110 Amino Acid Sequence
tolerance to topramezone, in words [1]: a certain tolerance to low concentration of topramezone | Grade 0 (number of plants) [2]: 4 | Grade 1 (number of plants) [2]: 16 | Grade 2 (number of plants) [2]: 0 | Grade 3 (number of plants) [2]: 0 | Resistance Grade [2]: Moderately resistant | score [2]: 27 | Grade 0 (number of plants) [3]: 0 | Grade 1 (number of plants) [3]: 0 | Grade 2 (number of plants) [3]: 14 | Grade 3 (number of plants) [3]: 6 | Resistance Grade [3]: Non-resistant | score [3]: 77
